This is an account of results in patent US20170189505A1.

This experiment deals with HLA-A*24 (human). Put plainly: UV peptide exchange, anti-b2m ELISA.
Take RYAEEVGIF [SEQ ID No 199 peptide …]: the peptide exchange yield lay in the range of 50 to 75%. AYTLIAPNI [SEQ ID No 169 peptide …]: the peptide exchange yield was 50 to 75%. TYELRYFQI [SEQ ID No 204 peptide …] displayed a peptide exchange yield of over 75%. Consider YYKSTSSAF [SEQ ID No 218 peptide …], for which the peptide exchange yield lay within 50 to 75%. The molecule IYSWILDHF [SEQ ID No 173 peptide …] returned a peptide exchange yield of over 75%. The molecule YFIDSTNLKTHF [SEQ ID No 269 peptide …] yielded a peptide exchange yield of 50 to 75%. The molecule IYATEAHVF [SEQ ID No 201 peptide …] showed a peptide exchange yield of 50 to 75%. With KYQDILETI [SEQ ID No 168 peptide …], the peptide exchange yield is over 75%. In turn, EYSLFPGQVVI [SEQ ID No 197 peptide …] showed a peptide exchange yield of 50 to 75%. Molecule TYGDAGLTYTF [SEQ ID No 283 peptide …] yielded a peptide exchange yield of 50 to 75%. KYPVEWAKF [SEQ ID No 289 peptide …] displayed a peptide exchange yield of over 75%. On to YYGPSLFLL [SEQ ID No 200 peptide …], for which the peptide exchange yield fell in the range of 50 to 75%. Regarding EYNQWFTKL [SEQ ID No 176 peptide …], the peptide exchange yield lay within 50 to 75%. With PYRLIFEKF [SEQ ID No 281 peptide …] the figure was 20 to 49%; with VYEDQVGKF [SEQ ID No 170 peptide …], 20 to 49%. Turning to YYVESGKLF [SEQ ID No 166 peptide …], the peptide exchange yield is over 75%. The value for LYIDRPLPYL [SEQ ID No 196 peptide …] was 50 to 75%. As to LFIPSSKLLFL [SEQ ID No 171 peptide …], the peptide exchange yield was in the range of 50 to 75%. The molecule NYYEVHKELF [SEQ ID No 270 peptide …] yielded a peptide exchange yield of 50 to 75%.

As for LYITEPKTI [SEQ ID No 287 peptide …], the peptide exchange yield was 50 to 75%.

Take VFTRVSSFL [SEQ ID No 162 peptide …]: the peptide exchange yield was 50 to 75%. The value for HYPPVQVLF [SEQ ID No 285 peptide …] was 50 to 75%; that for NYINRILKL [SEQ ID No 167 peptide …] was over 75%; that for HYSQELSLLYL [SEQ ID No 158 peptide …] was over 75%. As to DYLKGLASF [SEQ ID No 163 peptide …], the peptide exchange yield was over 75%. Regarding VYVSDIQEL [SEQ ID No 288 peptide …], the peptide exchange yield fell in the range of 50 to 75%.

For the molecule KFSSFSLFF [SEQ ID No 164 peptide …], the peptide exchange yield lay within 50 to 75%.

Take VYVGGGQIIHL [SEQ ID No 174 peptide …]: the peptide exchange yield fell in the range of 50 to 75%. TYKDEGNDYF [SEQ ID No 209 peptide …]: the peptide exchange yield fell in the range of 50 to 75%. With VYQGHTALL [SEQ ID No 277 peptide …], the peptide exchange yield was over 75%. RYLNKAFHI [SEQ ID No 284 peptide …]: the peptide exchange yield lay within 50 to 75%. LYNKGFIYL [SEQ ID No 159 peptide …] gave a peptide exchange yield of over 75%. The molecule AYVVFVSTL [SEQ ID No 207 peptide …] displayed a peptide exchange yield of 20 to 49%. With DYTTWTALL [SEQ ID No 165 peptide …] the figure was over 75%; with VYWDSAGAAHF [SEQ ID No 202 peptide …], over 75%; with IYLVSIPEL [SEQ ID No 161 peptide …], over 75%. On to YYEVHKELF [SEQ ID No 175 peptide …], for which the peptide exchange yield was over 75%.

For TYSVSFPMF [SEQ ID No 195 peptide …], the peptide exchange yield is over 75%. The molecule TFSVSSHLF [SEQ ID No 222 peptide …] registered a peptide exchange yield of 50 to 75%. Turning to RYPDNLKHL [SEQ ID No 286 peptide …], the peptide exchange yield lay within 20 to 49%.

The molecule VYTLDIPVL [SEQ ID No 160 peptide …] registered a peptide exchange yield of over 75%.

QYLGQIQHI [SEQ ID No 268 peptide …] returned a peptide exchange yield of 50 to 75%.
